Tests used:
[1] = in vivo; conditions: for tolerability of the dosage level: tolerated if treatment-related weight loss <20%; for Days of Deaths (s = surviving at study end): five mice listed singly; for common clinical signs / necropsy findings: dosage levels found tolerated; for Max. Mean Body Weight change during Rx (%) / MTD (maximum tolerated dose): intravenously once each day for ten days; for % Rx Related Deaths / Day of Max. Mean Body Weight Loss (body weight nadir): once each day for ten days; for MTD (maximum tolerated dose): mice fed a folate deficient diet, dose equivalents
Method: The purpose of this study was to determine the maximum tolerated dose for pemetrexed (PMX), Compound 20a (from Example 1), Compound 20b (from Example 1), Compound 20c (from Example 1), and Compound 20d (from Example 1) in female SCID mice fed a low folate diet. All compounds were administered intravenously, once each day, for ten consecutive days.
Calculations were made to provide “dose equivalents” between PMX, Compound 20a, Compound 20b, Compound 20c and Compound 20d, which “dose equivalents” along with the “actual dose” administered are provided in Table 2. All dosagese in this example are expressed in terms of “dose equivalents” and adjustments were made for excipients, salts and hydration state.
Female SCID mice (HsdIcr:Ha (ICR)-Prkdc-scid) were obtained from Harlan. They were seven weeks old on Day 1 of the experiment. The mice in Groups 1 and 2 were fed irradiated Rodent Diet 5053 (LabDiet™). The mice in Groups 3 through 19 were fed irradiated Folic Acid Deficient Purina TestDiet supplemented with 1% succinylsufathiazol from 14 days prior to dosing until 14 days after dosing was completed, at which time the study was terminated and the mice were then euthanized. All groups received drinking water ad libitum. Mice were housed in static cages in clean rooms that provide H.E.P.A filtered air into the environment at 100 complete air changes per hour. All treatments, body weight determinations, and tumor measurements were carried out in the environment. The environment was controlled to a temperature range of 70°±2° F. and a humidity range of 30-70%. […] Mice found in obvious distress or in a moribund condition were euthanized. The study was carried out in an AAALAC accredited facility.
Treatments began on Day 1. […] Mice in Groups 3 through 19 were fed irradiated Folic Acid Deficient Purina TestDiet with 1% Succinylsufathiazol for 14 days prior to dosing as well as throughout the entire experiment. All mice were dosed according to individual body weight on the day of treatment (0.2 ml/20 g).
Mice were weighed on each day of treatment and at least three times weekly thereafter. Individual body weights were recorded three times weekly. […] In this report, a dosage level is described as tolerated if treatment-related weight loss (during and two weeks after treatment) is <20%. Upon death or euthanasia, all mice were necropsied to provide a general assessment of potential cause of death and perhaps target organs for toxicity.

[2] = Single dose maximum tolerated dose study; format: in vivo, mice; conditions: single intravenous dose; for Single dose MTD: dose equivalents, in mg/kg
Method: Because of too much efficacy of daily dosing for ten days in a pilot xenograft study (likely due to the effects of repeated dosing), a single dose maximum tolerated dose study was conducted using a method similar to that provided in Example 3 in order to have a better dosing schedule for a comparative xenograft study.

[3] = tested on: xenograft; experiment: In vivo xenograft study; set-up: species or system female athymic nu/nu mice; conditions: as of day 26; intravenously, at 80% and at 50% of the single dose maximum tolerated dose
Method: Briefly, for run of the experiment, a previously untreated group of 8-12 week old mice was intravenously administered a test article prepared in saline and diluted to appropriate concentrations to allow administration volumes of a maximum of 20 mL/kg. Each compound of interest was tested twice: once at 80% of the maximum tolerated dose and once at 50% of the maximum tolerated (maximum tolerated doses calculated on the single dose maximum tolerated dose study).
Mice were observed daily for clinical signs and body weights were recorded daily (except on weekend days) then biweekly until the end of study. Dosing was terminated for any group in which mean weight loss exceeded 20% or >10% of animals died. Moribund animals were euthanized.

[4] = low folate diet, 3.75 mg/kg/inj dose equivalents
[5] = low folate diet, 1 mg/kg/inj dose equivalents
[6] = low folate diet, 15 mg/kg/inj dose equivalents

For “4-arm-PEG10k-γ-amide-Pemetrexed Conjugate [Compound 20a]”, the “maximum treatment-related body weight loss” value ([1]; low folate diet, 1 mg/kg) was “approximately 3.0%”, the “tolerability of the dosage level” value ([1]; low folate diet, 1 mg/kg) was “tolerated” and the “maximum treatment-related body weight loss” value ([1]; low folate diet, 3.75 mg/kg) was “approximately 3.0%”. For the same substance, the “Days of Deaths (s = surviving at study end)” value (shortened to “Days of Deaths”) [1, 4] was “s, s, s, s, s”, the “tolerability of the dosage level” value ([1]; low folate diet, 3.75 mg/kg) was “tolerated” and the “maximum treatment-related body weight loss” value ([1]; low folate diet, 15 mg/kg) was 14.9%. For the same substance, the “time to recover lost body weight” value ([1]; low folate diet, 15 mg/kg) was “approximately 10 days”, the “tolerability of the dosage level” value ([1]; low folate diet, 15 mg/kg) was “toxic” and the common clinical signs ([1]; low folate diet) was “Rough pelage”. The necropsy findings ([1]; low folate diet) was “bloated intestines and air filled stomachs”, the “Max. Mean Body Weight change during Rx (%)” value [1, 5] was −3.4% and the “Max. Mean Body Weight change during Rx (%)” value [1, 4] was −3.0%. For the same substance, the “Max. Mean Body Weight change during Rx (%)” value [1, 6] was −14.9%, the “% Rx Related Deaths” value [1, 5] was 20% and the “Day of Max. Mean Body Weight Loss (body weight nadir)” value (“Day of Max. Mean Body Weight Loss” below) [1, 5] was 5. The “% Rx Related Deaths” value [1, 4] was 0%, the “Day of Max. Mean Body Weight Loss” value [1, 4] was 8 and the “% Rx Related Deaths” value [1, 6] was 40%. For the same substance, the “Day of Max. Mean Body Weight Loss” value [1, 6] was 8 and the “MTD (maximum tolerated dose)” value [1] was 3.75 to 15 mg/kg.

With “4-arm-PEG20k-γ-amide-Pemetrexed Conjugate [Compound 20b]” the “Single dose MTD” value [2] was 70, the “BWL (body weight loss)” value ([2]; tested dose (equiv) 70) was −8.7% and the “day (of body weight loss)” value ([2]; tested dose (equiv) 70) was 7. The treatment-related deaths ([2]; tested dose (equiv) 70) was 0, the “BWL (body weight loss)” value ([2]; tested dose (equiv) 95) was −16.4% and the “day (of body weight loss)” value ([2]; tested dose (equiv) 95) was 7. The treatment-related deaths ([2]; tested dose (equiv) 95) was 0, the “BWL (body weight loss)” value ([2]; tested dose (equiv) 125) was −24.4% and the “day (of body weight loss)” value ([2]; tested dose (equiv) 125) was 7. For the same substance, the “mean day of death” value ([2]; tested dose (equiv) 125) was 9, the treatment-related deaths ([2]; tested dose (equiv) 125) was 1 and the “Days of Deaths” value [1, 5] was “s, s, s, s, s”. The “tolerability of the dosage level” value ([1]; low folate diet, 1 mg/kg) was “well tolerated”, the “Days of Deaths” value [1, 4] was “s, s, s, s, s” and the “tolerability of the dosage level” value ([1]; low folate diet, 3.75 mg/kg) was “well tolerated”. For the same substance, the “Days of Deaths” value [1, 6] was “s, s, s, s, s”, the “tolerability of the dosage level” value ([1]; low folate diet, 15 mg/kg) was “well tolerated” and the common clinical signs ([1]; low folate diet) was “Rough pelage”. For the same substance, the necropsy findings ([1]; low folate diet) was “Nothing significant”, the “Max. Mean Body Weight change during Rx (%)” value [1, 5] was −1.8% and the “Max. Mean Body Weight change during Rx (%)” value [1, 4] was −6.5%. The “Max. Mean Body Weight change during Rx (%)” value [1, 6] was −16.9%, the “Day of Max. Mean Body Weight Loss” value [1, 5] was 5 and the “Day of Max. Mean Body Weight Loss” value [1, 4] was 5. For the same substance, the “Day of Max. Mean Body Weight Loss” value [1, 6] was 12, the “MTD (maximum tolerated dose)” value [1] was about 15 mg/kg and the “tumor volume compared with saline control” value [3] was “significantly less tumor volume than saline control”. The “tumor volume compared with the other articles tested” value [3] was “lowest tumor volumes of all articles tested”.

In the case of “4-arm-PEG-20k-γ-Ethyl-Ester-pemetrexed [Compound 24b]”, the “Single dose MTD” value [2] is reported as 12, the treatment-related deaths ([2]; tested dose (equiv) 8) is reported as 0 and the “BWL (body weight loss)” value ([2]; tested dose (equiv) 12) is reported as −8.9%. For the same substance, the “day (of body weight loss)” value ([2]; tested dose (equiv) 12) was 5, the treatment-related deaths ([2]; tested dose (equiv) 12) was 0 and the “BWL (body weight loss)” value ([2]; tested dose (equiv) 20) was −10.4%. The “day (of body weight loss)” value ([2]; tested dose (equiv) 20) was 5, the treatment-related deaths ([2]; tested dose (equiv) 20) was 0 and the “tumor volume compared with saline control” value [3] was “significantly less tumor volume than saline control”.

With “4-arm-PEG-20k-γ-isopropyl-ester-pemetrexed [Compound 28]” the “Single dose MTD” value [2] was 10, the “BWL (body weight loss)” value ([2]; tested dose (equiv) 10) was −7.3% and the “day (of body weight loss)” value ([2]; tested dose (equiv) 10) was 9. The treatment-related deaths ([2]; tested dose (equiv) 10) was 0, the “BWL (body weight loss)” value ([2]; tested dose (equiv) 18) was −6.6% and the “day (of body weight loss)” value ([2]; tested dose (equiv) 18) was 5. The treatment-related deaths ([2]; tested dose (equiv) 18) was 0, the “BWL (body weight loss)” value ([2]; tested dose (equiv) 25) was −9.1% and the “day (of body weight loss)” value ([2]; tested dose (equiv) 25) was 7. The treatment-related deaths ([2]; tested dose (equiv) 25) was 0 and the “tumor volume compared with saline control” value [3] was “significantly less tumor volume than saline control”.

In the case of “4-arm-PEG-40k-γ-Ethyl-Ester-pemetrexed [Compound 24c]”, the “Single dose MTD” value [2] is reported as 10, the “BWL (body weight loss)” value ([2]; tested dose (equiv) 5) is reported as −0.5% and the “day (of body weight loss)” value ([2]; tested dose (equiv) 5) is reported as 5. The treatment-related deaths ([2]; tested dose (equiv) 5) was 0, the “BWL (body weight loss)” value ([2]; tested dose (equiv) 10) was −7.6% and the “day (of body weight loss)” value ([2]; tested dose (equiv) 10) was 5. The treatment-related deaths ([2]; tested dose (equiv) 10) was 0, the “BWL (body weight loss)” value ([2]; tested dose (equiv) 15) was −15.7% and the “day (of body weight loss)” value ([2]; tested dose (equiv) 15) was 7. For the same substance, the treatment-related deaths ([2]; tested dose (equiv) 15) was 0 and the “tumor volume compared with saline control” value [3] was “significantly less tumor volume than saline control”.
